Patent US20240092919A1

B1: A022600131 (protein)
chain: DVQLVESGGGVVQPGGSLRLSCVASGYVHKINFYGWYRQAPGKEREKVAHISIGDQTDYADSAKGRFTISRDESKNTVYLQMNSLRPEDTALYYCRALSRIWPYDYWGQGTLVTVSSGGGGSEVQLVESGGGLVQPGGSLRLSCVASGFTFSSFAMTWVRRPPGKGLEWVATITNGGVTSYRDSVKGRFTISRDNAKNTLYLEMTSLNPEDTAVYICANARRTGPRAPTDIGSYRGQGTLVTVSSGGGGSGGGGSGGGGSGGGGSEVQLVESGGGLVQPGGSLRLSCVASGSIFRSVFSSSTMEWYRQPPGKKRELVARIAPGDGTNYGALYADSVKGRFTISRDDAKKTVDLQMNSLKPEDTGVYFCASGVAWGQGTLVTVSSGGGGSGGGGSGGGGSGGGGSGGGGSGGGGSGGGGSEVQLVESGGGVVQPGGSLRLSCAASGFTFRSFGMSWVRQAPGKGPEWVSSISGSGSDTLYADSVKGRFTISRDNSKNTLYLQMNSLRPEDTALYYCTIGGSLSRSSQGTLVTVSSA
B2: A022600103 (protein)
chain: DVQLVESGGGVVQPGGSLRLSCVASGYVHKINFYGWYRQAPGKEREKVAHISIGDQTDYADSAKGRFTISRDESKNTVYLQMNSLRPEDTALYYCRALSRIWPYDYWGQGTLVTVSSGGGGSEVQLVESGGGLVQPGGSLRLSCVASGFTFSSFAMTWVRRPPGKGLEWVATITNGGVTSYRDSVKGRFTISRDNAKNTLYLEMTSLNPEDTAVYICANARRTGPRAPTDIGSYRGQGTLVTVSSGGGGSGGGGSGGGGSGGGGSGGGGSGGGGSGGGGSEVQLVESGGGVVQPGGSLRLSCAASGFTFRSFGMSWVRQAPGKGPEWVSSISGSGSDTLYADSVKGRFTISRDNSKNTLYLQMNSLRPEDTALYYCTIGGSLSRSSQGTLVTVSSA
B3: A022600105 (protein)
chain: DVQLVESGGGVVQPGGSLRLSCVASGYVHKINFYGWYRQAPGKEREKVAHISIGDQTDYADSAKGRFTISRDESKNTVYLQMNSLRPEDTALYYCRALSRIWPYDYWGQGTLVTVSSGGGGSGGGGSGGGGSGGGGSEVQLVESGGGLVQPGGSLRLSCVASGFTFSSFAMTWVRRPPGKGLEWVATITNGGVTSYRDSVKGRFTISRDNAKNTLYLEMTSLNPEDTAVYICANARRTGPRAPTDIGSYRGQGTLVTVSSGGGGSGGGGSGGGGSGGGGSGGGGSGGGGSGGGGSEVQLVESGGGVVQPGGSLRLSCAASGFTFRSFGMSWVRQAPGKGPEWVSSISGSGSDTLYADSVKGRFTISRDNSKNTLYLQMNSLRPEDTALYYCTIGGSLSRSSQGTLVTVSSA
B4: A022600133 (protein)
chain: DVQLVESGGGVVQPGGSLRLSCVASGYVHKINFYGWYRQAPGKEREKVAHISIGDQTDYADSAKGRFTISRDESKNTVYLQMNSLRPEDTALYYCRALSRIWPYDYWGQGTLVTVSSGGGGSEVQLVESGGGLVQPGGSLRLSCVASGSIFRSVFSSSTMEWYRQPPGKKRELVARIAPGDGTNYGALYADSVKGRFTISRDDAKKTVDLQMNSLKPEDTGVYFCASGVAWGQGTLVTVSSGGGGSGGGGSGGGGSGGGGSGGGGSGGGGSGGGGSEVQLVESGGGLVQPGGSLRLSCVASGFTFSSFAMTWVRRPPGKGLEWVATITNGGVTSYRDSVKGRFTISRDNAKNTLYLEMTSLNPEDTAVYICANARRTGPRAPTDIGSYRGQGTLVTVSSGGGGSGGGGSGGGGSGGGGSGGGGSGGGGSGGGGSEVQLVESGGGVVQPGGSLRLSCAASGFTFRSFGMSWVRQAPGKGPEWVSSISGSGSDTLYADSVKGRFTISRDNSKNTLYLQMNSLRPEDTALYYCTIGGSLSRSSQGTLVTVSSA
B5: A022600134 (protein)
chain: DVQLVESGGGVVQPGGSLRLSCVASGYVHKINFYGWYRQAPGKEREKVAHISIGDQTDYADSAKGRFTISRDESKNTVYLQMNSLRPEDTALYYCRALSRIWPYDYWGQGTLVTVSSGGGGSEVQLVESGGGLVQPGGSLRLSCVASGSIFRSVFSSSTMEWYRQPPGKKRELVARIAPGDGTNYGALYADSVKGRFTISRDDAKKTVDLQMNSLKPEDTGVYFCASGVAWGQGTLVTVSSGGGGSGGGGSGGGGSGGGGSEVQLVESGGGLVQPGGSLRLSCVASGFTFSSFAMTWVRRPPGKGLEWVATITNGGVTSYRDSVKGRFTISRDNAKNTLYLEMTSLNPEDTAVYICANARRTGPRAPTDIGSYRGQGTLVTVSSGGGGSGGGGSGGGGSGGGGSGGGGSGGGGSGGGGSEVQLVESGGGVVQPGGSLRLSCAASGFTFRSFGMSWVRQAPGKGPEWVSSISGSGSDTLYADSVKGRFTISRDNSKNTLYLQMNSLRPEDTALYYCTIGGSLSRSSQGTLVTVSSA
B6: A022600102 (protein)
chain: DVQLVESGGGVVQPGGSLRLSCVASGYVHKINFYGWYRQAPGKEREKVAHISIGDQTDYADSAKGRFTISRDESKNTVYLQMNSLRPEDTALYYCRALSRIWPYDYWGQGTLVTVSSAAAEVQLVESGGGLVQPGGSLRLSCVASGFTFSSFAMTWVRRPPGKGLEWVATITNGGVTSYRDSVKGRFTISRDNAKNTLYLEMTSLNPEDTAVYICANARRTGPRAPTDIGSYRGQGTLVTVSSGGGGSGGGGSGGGGSGGGGSGGGGSGGGGSGGGGSEVQLVESGGGVVQPGGSLRLSCAASGFTFRSFGMSWVRQAPGKGPEWVSSISGSGSDTLYADSVKGRFTISRDNSKNTLYLQMNSLRPEDTALYYCTIGGSLSRSSQGTLVTVSSA
B7: A022600104 (protein)
chain: DVQLVESGGGVVQPGGSLRLSCVASGYVHKINFYGWYRQAPGKEREKVAHISIGDQTDYADSAKGRFTISRDESKNTVYLQMNSLRPEDTALYYCRALSRIWPYDYWGQGTLVTVSSGGGGSGGGSEVQLVESGGGLVQPGGSLRLSCVASGFTFSSFAMTWVRRPPGKGLEWVATITNGGVTSYRDSVKGRFTISRDNAKNTLYLEMTSLNPEDTAVYICANARRTGPRAPTDIGSYRGQGTLVTVSSGGGGSGGGGSGGGGSGGGGSGGGGSGGGGSGGGGSEVQLVESGGGVVQPGGSLRLSCAASGFTFRSFGMSWVRQAPGKGPEWVSSISGSGSDTLYADSVKGRFTISRDNSKNTLYLQMNSLRPEDTALYYCTIGGSLSRSSQGTLVTVSSA
B8: A022600132 (protein)
chain: DVQLVESGGGVVQPGGSLRLSCVASGYVHKINFYGWYRQAPGKEREKVAHISIGDQTDYADSAKGRFTISRDESKNTVYLQMNSLRPEDTALYYCRALSRIWPYDYWGQGTLVTVSSGGGGSEVQLVESGGGLVQPGGSLRLSCVASGFTFSSFAMTWVRRPPGKGLEWVATITNGGVTSYRDSVKGRFTISRDNAKNTLYLEMTSLNPEDTAVYICANARRTGPRAPTDIGSYRGQGTLVTVSSGGGGSGGGSEVQLVESGGGLVQPGGSLRLSCVASGSIFRSVFSSSTMEWYRQPPGKKRELVARIAPGDGTNYGALYADSVKGRFTISRDDAKKTVDLQMNSLKPEDTGVYFCASGVAWGQGTLVTVSSGGGGSGGGGSGGGGSGGGGSGGGGSGGGGSGGGGSEVQLVESGGGVVQPGGSLRLSCAASGFTFRSFGMSWVRQAPGKGPEWVSSISGSGSDTLYADSVKGRFTISRDNSKNTLYLQMNSLRPEDTALYYCTIGGSLSRSSQGTLVTVSSA
B9: A022600122 (protein)
chain: DVQLVESGGGVVQPGGSLRLSCVASGYVHKINFYGWYRQAPGKEREKVAHISIGDQTDYADSAKGRFTISRDESKNTVYLQMNSLRPEDTALYYCRALSRIWPYDYWGQGTLVTVSSGGGGSEVQLVESGGGLVQPGGSLRLSCVASGFTFSSFAMTWVRRPPGKGLEWVATITNGGVTSYRDSVKGRFTISRDNAKNTLYLEMTSLNPEDTAVYICANARRTGPRAPTDIGSYRGQGTLVTVSSGGGGSGGGGSGGGGSGGGGSGGGGSGGGGSGGGGSEVQLVESGGGLVQPGGSLRLSCVASGSIFRSVFSSSTMEWYRQPPGKKRELVARIAPGDGTNYGALYADSVKGRFTISRDDAKKTVDLQMNSLKPEDTGVYFCASGVAWGQGTLVTVSSGGGGSGGGGSGGGGSGGGGSGGGGSGGGGSGGGGSEVQLVESGGGVVQPGGSLRLSCAASGFTFRSFGMSWVRQAPGKGPEWVSSISGSGSDTLYADSVKGRFTISRDNSKNTLYLQMNSLRPEDTALYYCTIGGSLSRSSQGTLVTVSSA
B10: A022600096 (protein)
chain: DVQLVESGGGLVQPGGSLRLSCVASGYVHKINFYGWYRQAPGKEREKVAHISIGDQTDYADSAKGRFTISRDESKNTVYLQMNSLRPEDTALYYCRALSRIWPYDYWGQGTLVTVSSGGGGSGGGGSGGGGSGGGGSGGGGSGGGGSGGGGSEVQLVESGGGLVQPGGSLRLSCVASGFTFSSFAMTWVRRPPGKGLEWVATITNGGVTSYRDSVKGRFTISRDNAKNTLYLEMTSLNPEDTAVYICANARRTGPRAPTDIGSYRGQGTLVTVSSGGGGSGGGGSGGGGSGGGGSGGGGSGGGGSGGGGSEVQLVESGGGVVQPGGSLRLSCAASGFTFRSFGMSWVRQAPGKGPEWVSSISGSGSDTLYADSVKGRFTISRDNSKNTLYLQMNSLRPEDTALYYCTIGGSLSRSSQGTLVTVSSA

Biological target: human GPC3 on cells (human) (UniProt P51654)
Experiment: cell-based or functional assay

Point of comparison: B1, IC50 (M), Incucyte human TDC HepG2-Nuclight green assay, E:T 15:1 (Step 2) 4.44e-10 M. Against it:
- B2 — within 1.5-fold, 5.43e-10 M
- B4 — within 1.5-fold, 4.08e-10 M
- B5 — within 1.5-fold, 5.28e-10 M
- B8 — 1.6-fold higher, 7.02e-10 M
- B9 — within 1.5-fold, 4.45e-10 M

Point of comparison: B4, Max % Killing, Incucyte human TDC HepG2-Nuclight green assay (Step 2) 92%. Against it:
- B1 — higher, 94%
- B2 — lower, 90%
- B5 — the same, 92%
- B8 — lower, 91%
- B9 — the same, 92%

Point of comparison: B8, HepG2 on Incucyte IC50 (M), human TDC, E:T 15:1, 60 h 6.83e-10 M. Against it:
- B2 — 1.8-fold higher, 1.23e-09 M
- B9 — within 1.5-fold, 5.3e-10 M

Point of comparison: B8, HepG2 on Incucyte Max % killing, 60 h 83%. Against it:
- B2 — higher, 96%
- B9 — higher, 93%

Point of comparison: B8, Huh7 on xCELLigence IC50 (M), human TDC, E:T 15:1, 60 h 2.9e-10 M. Against it:
- B2 — 25-fold higher, 7.11e-09 M
- B9 — within 1.5-fold, 2.61e-10 M

Point of comparison: B2, Huh7 on xCELLigence Max % killing, 60 h 71%. Against it:
- B8 — higher, 95%
- B9 — higher, 101%

Point of comparison: B3, IC50 (M), Incucyte human TDC HepG2-Nuclight green assay, E:T 15:1, 72 h 2.14e-09 M. Against it:
- B2 — within 1.5-fold, 2.04e-09 M
- B6 — within 1.5-fold, 1.72e-09 M
- B7 — within 1.5-fold, 2.13e-09 M
- B10 — 1.5-fold lower, 1.4e-09 M

Point of comparison: B7, Max % Killing, Incucyte human TDC HepG2-Nuclight green assay, 72 h 90%. Against it:
- B2 — higher, 92%
- B3 — lower, 85%
- B6 — higher, 94%
- B10 — lower, 72%
